Source: US20240059799A1 (Pfizer, published 2024)

T1: human IL-23 (human, UniProt P29460 23-328; Q9NPF7 20-189)
T1 sequence 1: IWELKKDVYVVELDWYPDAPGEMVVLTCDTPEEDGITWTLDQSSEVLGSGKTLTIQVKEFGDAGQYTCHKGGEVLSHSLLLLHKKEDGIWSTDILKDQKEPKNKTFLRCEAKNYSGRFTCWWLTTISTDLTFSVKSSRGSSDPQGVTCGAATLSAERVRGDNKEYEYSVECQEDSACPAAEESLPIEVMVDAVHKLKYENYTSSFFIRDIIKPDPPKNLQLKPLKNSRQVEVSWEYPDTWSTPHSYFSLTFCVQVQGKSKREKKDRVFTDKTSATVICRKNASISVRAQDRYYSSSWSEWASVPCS
T1 sequence 2: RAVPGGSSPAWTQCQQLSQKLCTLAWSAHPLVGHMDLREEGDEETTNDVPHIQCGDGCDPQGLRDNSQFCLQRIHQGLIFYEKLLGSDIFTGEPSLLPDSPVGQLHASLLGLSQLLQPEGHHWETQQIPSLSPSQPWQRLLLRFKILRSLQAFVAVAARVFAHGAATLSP

T2: cynomolgus monkey IL-23 (cynomolgus monkey, limits assumed)
T2 chain 1: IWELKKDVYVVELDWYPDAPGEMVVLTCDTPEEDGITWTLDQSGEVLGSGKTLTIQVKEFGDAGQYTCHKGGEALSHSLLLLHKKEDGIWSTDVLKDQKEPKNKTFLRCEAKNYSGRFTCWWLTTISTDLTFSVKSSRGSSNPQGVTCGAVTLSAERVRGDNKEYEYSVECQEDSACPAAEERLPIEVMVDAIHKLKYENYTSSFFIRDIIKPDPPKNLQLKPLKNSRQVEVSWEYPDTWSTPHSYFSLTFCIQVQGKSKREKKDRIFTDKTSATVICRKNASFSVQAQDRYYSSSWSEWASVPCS
T2 chain 2: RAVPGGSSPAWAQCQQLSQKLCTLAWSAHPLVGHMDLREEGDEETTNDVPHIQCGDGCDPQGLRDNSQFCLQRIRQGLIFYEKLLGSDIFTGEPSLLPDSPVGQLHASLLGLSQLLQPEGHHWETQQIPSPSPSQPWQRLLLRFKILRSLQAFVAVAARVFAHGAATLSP

T3: recombinant human TL1A (human, UniProt O95150 71-251)
T3 chain: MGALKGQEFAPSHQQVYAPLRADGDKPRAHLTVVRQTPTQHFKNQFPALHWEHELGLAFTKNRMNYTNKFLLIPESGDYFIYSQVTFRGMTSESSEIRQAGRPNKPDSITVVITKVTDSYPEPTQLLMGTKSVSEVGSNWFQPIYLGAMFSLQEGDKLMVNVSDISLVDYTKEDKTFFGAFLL

T4: recombinant cynomolgus monkey TL1A (cynomolgus monkey, UniProt O95150 72-251 (human entry))
T4 chain: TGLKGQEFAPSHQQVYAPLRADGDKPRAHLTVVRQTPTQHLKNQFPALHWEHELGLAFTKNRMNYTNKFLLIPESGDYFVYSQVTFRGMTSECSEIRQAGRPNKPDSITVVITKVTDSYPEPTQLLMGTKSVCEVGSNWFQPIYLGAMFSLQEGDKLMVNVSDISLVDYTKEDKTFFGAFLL

T5: cynomolgus monkey IL-12 (cynomolgus monkey)
T5 chain 1: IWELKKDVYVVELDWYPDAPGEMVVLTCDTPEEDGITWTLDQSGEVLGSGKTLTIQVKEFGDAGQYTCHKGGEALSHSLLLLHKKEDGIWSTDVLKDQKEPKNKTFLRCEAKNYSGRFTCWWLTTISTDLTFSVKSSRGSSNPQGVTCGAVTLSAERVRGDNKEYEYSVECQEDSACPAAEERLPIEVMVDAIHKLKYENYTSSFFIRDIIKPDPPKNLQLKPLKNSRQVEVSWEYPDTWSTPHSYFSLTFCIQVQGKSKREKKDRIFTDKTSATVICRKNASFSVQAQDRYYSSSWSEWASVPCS
T5 chain 2: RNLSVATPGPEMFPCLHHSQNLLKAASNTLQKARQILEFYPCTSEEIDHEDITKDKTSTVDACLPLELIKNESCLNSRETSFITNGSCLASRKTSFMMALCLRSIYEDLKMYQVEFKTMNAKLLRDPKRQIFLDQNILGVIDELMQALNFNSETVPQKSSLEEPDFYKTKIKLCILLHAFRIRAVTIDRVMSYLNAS

T6: human IL-12 (human, UniProt P29460 23-328; P29459 23-219)
T6 sequence 1: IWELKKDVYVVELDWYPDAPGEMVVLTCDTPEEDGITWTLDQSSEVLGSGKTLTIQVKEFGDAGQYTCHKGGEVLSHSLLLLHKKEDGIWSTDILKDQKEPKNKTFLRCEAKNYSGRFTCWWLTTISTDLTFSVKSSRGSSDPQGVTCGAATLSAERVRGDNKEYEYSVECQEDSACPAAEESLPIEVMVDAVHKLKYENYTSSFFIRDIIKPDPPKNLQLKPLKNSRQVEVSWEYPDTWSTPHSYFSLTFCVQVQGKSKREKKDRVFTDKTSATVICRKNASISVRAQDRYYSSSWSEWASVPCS
T6 sequence 2: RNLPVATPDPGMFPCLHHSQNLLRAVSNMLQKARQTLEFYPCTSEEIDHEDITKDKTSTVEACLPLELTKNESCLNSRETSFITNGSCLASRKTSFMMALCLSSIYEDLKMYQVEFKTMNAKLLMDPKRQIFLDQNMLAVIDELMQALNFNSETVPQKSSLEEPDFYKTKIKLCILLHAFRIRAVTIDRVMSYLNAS

T7: human IL-23 (human, UniProt P29460 23-328; Q9NPF7 20-189)
T7 sequence 1: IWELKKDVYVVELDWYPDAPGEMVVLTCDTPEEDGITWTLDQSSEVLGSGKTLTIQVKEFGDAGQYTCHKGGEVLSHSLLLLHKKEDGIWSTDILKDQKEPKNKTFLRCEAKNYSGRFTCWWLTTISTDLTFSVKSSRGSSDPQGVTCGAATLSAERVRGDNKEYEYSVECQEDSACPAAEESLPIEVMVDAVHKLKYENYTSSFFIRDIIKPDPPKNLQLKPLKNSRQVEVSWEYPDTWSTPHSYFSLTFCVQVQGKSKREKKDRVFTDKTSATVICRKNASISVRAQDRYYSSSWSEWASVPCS
T7 sequence 2: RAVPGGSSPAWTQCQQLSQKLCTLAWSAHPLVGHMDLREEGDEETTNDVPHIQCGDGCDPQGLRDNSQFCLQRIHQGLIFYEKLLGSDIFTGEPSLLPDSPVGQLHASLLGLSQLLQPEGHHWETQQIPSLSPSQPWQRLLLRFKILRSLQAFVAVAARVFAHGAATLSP

T8: recombinant human TL1A (human, UniProt O95150 71-251)
T8 chain: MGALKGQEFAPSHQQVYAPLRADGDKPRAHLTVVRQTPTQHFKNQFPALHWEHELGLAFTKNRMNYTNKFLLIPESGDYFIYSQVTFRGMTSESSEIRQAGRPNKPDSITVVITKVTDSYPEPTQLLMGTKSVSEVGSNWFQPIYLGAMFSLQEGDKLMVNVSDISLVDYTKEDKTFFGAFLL

T9: human IL-12 (human, UniProt P29460 23-328; P29459 23-219)
T9 sequence 1: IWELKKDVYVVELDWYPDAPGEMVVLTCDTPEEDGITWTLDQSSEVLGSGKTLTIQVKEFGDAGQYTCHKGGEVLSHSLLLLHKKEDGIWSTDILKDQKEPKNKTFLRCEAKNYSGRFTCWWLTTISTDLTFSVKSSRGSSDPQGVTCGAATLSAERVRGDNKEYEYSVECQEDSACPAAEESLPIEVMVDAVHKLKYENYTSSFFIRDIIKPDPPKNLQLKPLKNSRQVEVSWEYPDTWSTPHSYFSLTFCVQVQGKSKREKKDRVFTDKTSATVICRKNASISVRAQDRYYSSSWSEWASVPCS
T9 sequence 2: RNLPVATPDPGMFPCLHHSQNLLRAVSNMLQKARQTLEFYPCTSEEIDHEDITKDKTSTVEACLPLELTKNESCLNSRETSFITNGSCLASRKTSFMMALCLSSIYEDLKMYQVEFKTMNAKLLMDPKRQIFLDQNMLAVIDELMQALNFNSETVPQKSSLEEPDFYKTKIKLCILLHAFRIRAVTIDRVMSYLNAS


Tests used:
human IL-23 [1] = target: T1, human IL-23; assay: cell-based or functional assay
cynomolgus monkey IL-23 = target: T2, cynomolgus monkey IL-23; assay: cell-based or functional assay
recombinant human TL1A [2] = target: T3, recombinant human TL1A; assay: cell-based or functional assay
[3] = target: T4, recombinant cynomolgus monkey TL1A; assay: cell-based or functional assay
cynomolgus monkey IL-12 = target: T5, cynomolgus monkey IL-12; assay: cell-based or functional assay
human IL-12 [4] = target: T6, human IL-12; assay: cell-based or functional assay
human IL-23 [5] = target: T7, human IL-23; assay: cell-based or functional assay; remark: listed apart in the source
recombinant human TL1A [6] = target: T8, recombinant human TL1A; assay: cell-based or functional assay
human IL-12 [7] = target: T9, human IL-12; assay: cell-based or functional assay; remark: listed apart in the source
human IL-23 [8] = target: T7, human IL-23; assay: SPR, 37 C; antibody captured by anti-human Fc, human IL-23 injected
Description: SPR was utilized to determine if the affinity constants of each arm of the bispecific variants binding human IL-23, containing the p40 subunit, and human TL1A were the same for each bispecific approach. For the analysis of the p40 binding arm, kinetic assays were conducted at 37° C. using a collection rate of 10 Hz on a Biacore™ 8 K+ instrument (GE Healthcare). An anti-human IgG antibody (anti-human Fc, GE Healthcare, 22-0648-88) was amine coupled to all four flow cells of a carboxymethylated dextran coated sensor chip (GE Healthcare,) using the manufacturer's recommended protocol. […] For the analysis of the TL1A binding arm, kinetic assays were conducted at 37° C. using a collection rate of 10 Hz on a Biacore™ T200 instrument (GE Healthcare).
As described above in EXAMPLE 12, SPR was utilized to determine if the affinity constants of each arm of the bispecific variants binding human IL-23, containing the p40 subunit, and human TL1A were the same for each bispecific variant.

STAT3 activation in human whole blood, fold decreased potency (IC50) compared to p40-0003 (human IL-23 [1])	KIT-225 STAT3 phosphorylation, fold-change of potency across species (human against cynomolgus monkey IL-23) (cynomolgus monkey IL-23)	NF-κB assay in TF-1 reporter cells, neutralization relative to TL1A-0002 (recombinant human TL1A [2])	NF-κB assay in TF-1 reporter cells, fold-change of neutralization across species (human against cynomolgus monkey TL1A) [3]	KIT-225 STAT4 phosphorylation, fold-change of potency across species (human against cynomolgus monkey IL-12) (cynomolgus monkey IL-12)	STAT4 activation in human whole blood, fold decreased potency (IC50) compared to p40-0003 (human IL-12 [4])	KIT-225 STAT3 assay IL-23, Bioactivity relative to p40-0003 (human IL-23 [5])	KIT-225 STAT3 assay IL-23 IC50 (human IL-23 [5])	NF-κB assay IC50 (TF-1 reporter cells) (recombinant human TL1A [6])	NF-κB assay, Bioactivity relative to TL1A-0372 (recombinant human TL1A [6])	KIT-225 STAT4 assay IL-12, Bioactivity relative to p40-0003 (human IL-12 [7])	KIT-225 STAT4 assay IL-12 IC50 (human IL-12 [7])	koff (human IL-23 [8])	kon (human IL-23 [8])	Binder
~2.9 fold	1.2 fold	≤ 2 fold	1.7 fold	1.2 fold	~2.9 fold	–	–	–	–	–	–	–	–	p40TL1A-0033 (bispecific antibody, human IgG1, kappa, KiH modified-Fd bispecific: TL1A VL-CL-Fc (hole), TL1A mFd, p40 HC (knob), p40 LC; LS) chain 1: not shown chain 2: QVQLVQSGAEVKKPGASVKVSCKASGYDYTYYGISWVRQAPGQGLEWMGWISTYNTGTHYAPSLQGRVTMTTDTSTSTAYMELRSLRSDDTAVYYCARESYYGSGAFRGGMDVWGQGTTVTVSSASTKGPSVFPLAPSSKSTSGGTAALGCLVKDYFPEPVTVSWNSGALTSGVHTFPAVLQSSGLYSLSSVVTVPSSSLGTQTYICNVNHKPSNTKVDKKVEPKSC heavy: EVQLVQSGAEVKKPGESLKISCKGSGYSFTTYWLGWVRQMPGKGLDWIGIMSPVDSDIRYSPSFQGQVTMSVDKSITTAYLQWNSLKASDTAMYYCARRRPGQGYFDFWGQGTLVTVSSASTKGPSVFPLAPSSKSTSGGTAALGCLVKDYFPEPVTVSWNSGALTSGVHTFPAVLQSSGLYSLSSVVTVPSSSLGTQTYICNVNHKPSNTKVDKKVEPKSCDKTHTCPPCPAPEAAGAPSVFLFPPKPKDTLMISRTPEVTCVVVDVSHEDPEVKFNWYVDGVEVHNAKTKPREEQYNSTYRVVSVLTVLHQDWLNGKEYKCKVSNKALPAPIEKTISKAKGQPREPQVCTLPPSREEMTKNQVSLWCLVKGFYPSDIAVEWESNGQPENNYKTTPPVLDSDGSFFLYSKLTVDKSRWQQGNVFSCSVLHEALHSHYTQKSLSLSPGK light: not shown
–	–	–	–	–	–	1.4 fold	2.3 nM	0.131 nM	1.3 fold	1.4 fold	4.8 nM	0.00056 s⁻¹	2.28e+06 M⁻¹ s⁻¹	p40TL1A-0033 bispecific antibody (bispecific antibody, human IgG1, kappa, Single cell KiH, modified Fd format; IgG1 effector-function-minimized Fc with LS mutations) heavy: EVQLVQSGAEVKKPGESLKISCKGSGYSFTTYWLGWVRQMPGKGLDWIGIMSPVDSDIRYSPSFQGQVTMSVDKSITTAYLQWNSLKASDTAMYYCARRRPGQGYFDFWGQGTLVTVSSASTKGPSVFPLAPSSKSTSGGTAALGCLVKDYFPEPVTVSWNSGALTSGVHTFPAVLQSSGLYSLSSVVTVPSSSLGTQTYICNVNHKPSNTKVDKKVEPKSCDKTHTCPPCPAPEAAGAPSVFLFPPKPKDTLMISRTPEVTCVVVDVSHEDPEVKFNWYVDGVEVHNAKTKPREEQYNSTYRVVSVLTVLHQDWLNGKEYKCKVSNKALPAPIEKTISKAKGQPREPQVCTLPPSREEMTKNQVSLWCLVKGFYPSDIAVEWESNGQPENNYKTTPPVLDSDGSFFLYSKLTVDKSRWQQGNVFSCSVLHEALHSHYTQKSLSLSPGK light: not shown chain 1: not shown chain 2: QVQLVQSGAEVKKPGASVKVSCKASGYDYTYYGISWVRQAPGQGLEWMGWISTYNTGTHYAPSLQGRVTMTTDTSTSTAYMELRSLRSDDTAVYYCARESYYGSGAFRGGMDVWGQGTTVTVSSASTKGPSVFPLAPSSKSTSGGTAALGCLVKDYFPEPVTVSWNSGALTSGVHTFPAVLQSSGLYSLSSVVTVPSSSLGTQTYICNVNHKPSNTKVDKKVEPKSC
